Measured values published in patent publication US20150238603A1.

Columns and labels:
Human CD38 (human) [1] = target: Human CD38 (human) (UniProt P28907); assay: flow cytometry, QuantiBRITE system, LP1 cells
Human CD38 (human) [2] = target: Human CD38 (human) (UniProt P28907); assay: flow cytometry, QuantiBRITE system, NCI-H929 cells
Human CD38 (human) [3] = target: Human CD38 (human) (UniProt P28907); assay: flow cytometry, QuantiBRITE system, RPMI8226 cells

Chain of UniProt P28907 (P28907 whole entry): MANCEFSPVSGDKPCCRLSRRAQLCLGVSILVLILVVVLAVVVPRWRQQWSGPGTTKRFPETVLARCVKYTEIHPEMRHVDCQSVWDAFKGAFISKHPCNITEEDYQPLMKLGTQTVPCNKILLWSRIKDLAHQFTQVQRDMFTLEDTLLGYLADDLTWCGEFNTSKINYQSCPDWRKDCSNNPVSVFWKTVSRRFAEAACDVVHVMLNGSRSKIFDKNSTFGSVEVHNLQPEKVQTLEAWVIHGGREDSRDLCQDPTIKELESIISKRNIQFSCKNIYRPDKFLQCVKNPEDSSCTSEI

## QuantiBRITE CD38-PE antibody (Becton Dickinson GmbH, Clone HB7, CAT #342371)
Human CD38 (human) [1]
  Antibodies Bound Per Cell (ABC) (antibodies bound per cell): 125000
Human CD38 (human) [2]
  Antibodies Bound Per Cell (ABC) (antibodies bound per cell): 195000
Human CD38 (human) [3]
  Antibodies Bound Per Cell (ABC) (antibodies bound per cell): > 677000
